The values that follow come from the supplement of paper PMC9170038.

The subject of the data set is MS2 coat protein. In words: apparent KD of MS2 coat protein; designed switch direction (-1 OFF switch, 1 ON switch): -1; higher = weaker reporter binding. In outline: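 An oligonucleotide input, 200 uM small-molecule ligand, or no input was present during titration of SNAP-549-labelled MS2 coat protein, which was doubled from 0.7 or 1.5 nM to 3 µM. Designed RNA switches had been transcribed on Illumina chips by stalled E. coli RNA polymerase. Apparent KD per design is the median over clusters of curves fitted to normalised cluster fluorescence.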

The mark [1] stands for this setting: Eterna round: R95, input ligand: FMN 200 uM.
Setting [2] is: Eterna round: R95, input ligand: microRNA oligo, concentration not stated.
Setting [3] is: Eterna round: R95, input ligand: none.
Setting [4] is: input ligand: microRNA oligo, concentration not stated.

Consider “UUUAAUUUUUUUUUUUUACAAGCUUUUUGCUCGUCUUAUACAUGAGGAUCACCCAUGUGGGUGGGAGAUAAAUUAUC [JMF 24] (puzzle: Sensor v3, turn-off variant 2)”, for which the “apparent KD of MS2 coat protein” value is 88.6 nM under setting [1], 59.3 nM under setting [2] and 341 nM under setting [3].
Consider “UUUAGUAUCUAGGAUAUCUAGUACAUAGUAUCUAGAGAAGGAGAUACAUGAGGAUCACCCAUGUUCUGUGAUCU [Exclusion 6 - 2:b] (puzzle: Exclusion 6)”, for which the “apparent KD of MS2 coat protein” value under setting [2] was 118 nM.
In the case of “UUUAGUUCAGGAUAUGUAGAAAUUAACAUGAGGAUCACCCAUGUAGAUCCUGAAUUAACUACAGAAGGGAACAUUU [JL-ex5-4.43 Brourd mod] (Eterna round: R97, puzzle: Exclusion 5)”, the “apparent KD of MS2 coat protein” value is, setting by setting: (input ligand: FMN 200 uM) 51.3 nM; (input ligand: none) 15.7 nM.
For the sequence “UUUAGUUCAGGAUAUGUAGAUUUUAACAUGAGGAUCACCCAUGUAGAUCCUGAAUUAACUACAGAAGGGAACAUUA [Exclusion 5: 2:d] (Eterna round: R96, puzzle: Exclusion 5)”, the “apparent KD of MS2 coat protein” value is 81.1 nM (input ligand: FMN 200 uM), 20.3 nM under setting [4] and 24.7 nM (input ligand: none).
With “UUUAGUUCAGGAUAUGUAGAUUUUAACAUGAGGAUCACCCAUGUAGAUCCUGAAUUAACUACAGAAGGGAACAUUA [Exclusion 5: 2:d] (puzzle: Exclusion 5)”, the “apparent KD of MS2 coat protein” value under setting [2] is 19.4 nM.
In the case of “UUUAGUUCAGGAUAUGUAGAUUUUAACAUGAGGAUCACCCAUGUAGAUCCUGAUCCUGCUACAGAAGGGAAGAUUU [Mat - Exclusion 5 - Eli Mod - D7] (Eterna round: R97, puzzle: Exclusion 5)”, the “apparent KD of MS2 coat protein” value runs as follows: (input ligand: FMN 200 uM) 22.3 nM; (input ligand: none) 23.9 nM.
Consider “UUUAUAAUUUCAAUCUUCGCCAGCAAACUAACACUGGCCACAUGAGGAUCACCCAUGUUUUUUGUUCGUUUUAUUCU [Cesoorso] (puzzle: Sensor v3, turn-off variant 2)”, for which the “apparent KD of MS2 coat protein” value was determined as 21.6 nM under setting [1], 62.9 nM under setting [2] and 23.3 nM under setting [3].
As to “UUUAUAUAGUAAGGAUAUGUAUUAUUUUUUACAACAGAAGGUACUGACAUGAGGAUCACCCAUGUUUUAGUGUGGGCAUGUAGU [JMF's solution 100] (Eterna round: R96, puzzle: Exclusion NG 1)”, under setting [4], the “apparent KD of MS2 coat protein” value is 217 nM.
Take “UUUCAACAUGAGGAUCACCCAUGUGAGGAUAUGAUGCAGCAGUGGUCUACGCUGUGCAUCAGAAGGCACAUGUG (puzzle: Exclusion 1)”: the “apparent KD of MS2 coat protein” value under setting [2] is 130 nM.
As for “UUUCAACGGUAGGAUAUCGAGACUACGACUAGCCGAGAAGGGCCGACAUGAGGAUCACCCAUGUGCCUCACCCG [Eternabot (L1) Solution 56] (Eterna round: R97, puzzle: Exclusion 6)”, the “apparent KD of MS2 coat protein” value is 22.9 nM (input ligand: FMN 200 uM) and 23.9 nM (input ligand: none).
For the sequence “UUUCGGCGGACCGUGGCUUUUUGCUCGUCUUAUGCUACGACAUGAGGAUCACCCAUGUGGUGGUGGUCCGUUGUUGU [Grok-var2-11 mod JAL] (puzzle: Sensor v3, turn-off variant 2)”, the “apparent KD of MS2 coat protein” value came out at 59.7 nM under setting [1], 10.4 nM under setting [2] and 39.7 nM under setting [3].
Take “UUUCGUGUGCGGGCUUUUUACAUGAGGAUCACCCAUGUCCUCUGCUUGUCUUGUCUUGGGCUUUUUUUGGGUUCGGG [-19.4, -42 kcal, A 8%] (Eterna round: R97, puzzle: Sensor, turn-off variant 1)”: the “apparent KD of MS2 coat protein” value (input ligand: FMN 200 uM) stood at 560 nM and the “apparent KD of MS2 coat protein” value (input ligand: none) came to 836 nM.
The like results for “UUUCUUAAGUGGUCGCUUCACAUGAGGAUCACCCAUGUCGCCUCUAUGGCAUUAAAUACGAGCUUUUUGCUUGAAUU [Eternabot (L1) Solution 14] (Eterna round: R97, puzzle: Sensor, turn-off variant 1)” were, in that order, 312 nM and 385 nM.
The matching figures for “UUUGAGUUAGGAUAUGCCAAGUUGCACAUGAGGAUCACCCAUGUGAGGUGCCUUACUUAAGCAGAAGGAACAAUAA [EX5 C.13] (Eterna round: R97, puzzle: Exclusion 5)”: 22.1 nM and 19.8 nM.
The matching figures for “UUUGGUGUAGGAUAUACAUGAGGAUCACCCAUGUGCUCCUGCGAGUUCGAAUCCAAAGGUAGAAGGGCGCUAAU [Eternabot (L2) Solution 83] (Eterna round: R97, puzzle: Exclusion 3)”: 23.3 nM and 21.2 nM.
As for “UUUGUCUGUGUGAGGAUAUACUUGUUUGGGUUUUUGUAGAAGGCACAUGAGGAUCACCCAUGUAUUUUGUUGUG [JR_BME4_Sub017] (Eterna round: R96, puzzle: Brourd's mod of Exclusion 4)”, the “apparent KD of MS2 coat protein” value (input ligand: FMN 200 uM) came to 86.5 nM, the “apparent KD of MS2 coat protein” value under setting [4] turned out to be 47.7 nM and the “apparent KD of MS2 coat protein” value (input ligand: none) came to 55.9 nM.
On to “UUUGUCUGUGUGAGGAUAUACUUGUUUGGGUUUUUGUAGAAGGCACAUGAGGAUCACCCAUGUAUUUUGUUGUG [JR_BME4_Sub017] (puzzle: Brourd's mod of Exclusion 4)”, for which the “apparent KD of MS2 coat protein” value under setting [2] is 49.7 nM.
For the sequence “UUUGUGUCAGGAUAUGAGUAGUAGAACAAUAGUACUACUACUCAGAAGGGACAUGAGGAUCACCCAUGUUCCUC [Fiskers Ex 4 Super stable 44 mod 21] (puzzle: Exclusion 4)”, the “apparent KD of MS2 coat protein” value under setting [2] is 19 nM.
The same measure, in the same setting: for “UUUGUUGUUGUGAGGAUAUCGUAGUUAUUUUGAAACGAGAAGGCACAUGAGGAUCACCCAUGUUUGUUGAUGGU [JR_BMOE4_Sub062] (puzzle: Brourd's mod of Exclusion 4)” the value was 32.4 nM.
For the sequence “UUUGUUUAUGUAGGAUAUGCCUGGCGUGCCUUUGCAGAAGGACAUGAGGAUCACCCAUGUAACAUGAGGCUCACCCAUGUCGCG [salish99_ExNG1_r04_112] (Eterna round: R96, puzzle: Exclusion NG 1)”, the “apparent KD of MS2 coat protein” value is 285 nM (input ligand: FMN 200 uM), 152 nM under setting [4] and 277 nM (input ligand: none).
As to “UUUUAACAUGAGGAUCACCCAUGUGAGGAUAUCGAAAUUUAUAUUAAUAUUAAUUAUUCGAGAAGGCACAUUUU [JMF 29] (puzzle: Exclusion 1)”, the “apparent KD of MS2 coat protein” value under setting [2] was found to be 114 nM.
Same read-out and setting: in the case of “UUUUAACAUGAGGAUCACCCAUGUGAGGAUAUCGAAAUUUAUAUUAAUAUUAUUAAUACGAGAAGGCACAUUUU [JMF 38] (puzzle: Exclusion 1)” it was 36.2 nM; in that of “UUUUAACAUGAGGAUCACCCAUGUGAGGAUAUCGAAAUUUAUAUUAAUAUUUAUAAUUCGAGAAGGCACAUUUU [JMF 53] (puzzle: Exclusion 1)”, 155 nM; in that of “UUUUAACAUGAGGAUCACCCAUGUGAGGAUAUCGAAAUUUAUAUUAAUAUUUAUAUAUCGAGAAGGCACAUUUU [JMF 56] (puzzle: Exclusion 1)”, 117 nM.
Still for that read-out and setting: for “UUUUAACAUGAGGAUCACCCAUGUGAGGAUAUCGAAAUUUAUAUUUAUAUUAAUUUAACGAGAAGGCACAUUUU [JMF 87] (puzzle: Exclusion 1)” the value was 84.4 nM.
Take “UUUUAAUAUGAAGGAUAUACUUAACAUGAGGAUCACCCAUGUGGUGUUGUGAGUGAGUGAGUUUAGUAGAAGGUCAAUGAUUUU [JMF's solution 69] (Eterna round: R96, puzzle: Exclusion NG 2)”: the “apparent KD of MS2 coat protein” value runs as follows: (input ligand: FMN 200 uM) 638 nM; under setting [4], 381 nM; (input ligand: none) 252 nM.
